How the values were obtained:
Experiment in all cases: NMR line shape analysis
[1] = biological target: cyclophilin domain of human Cyclophilin B (residues 39-216) (human, UniProt P23284 39-216)
[2] = biological target: human Cyclophilin A (human, UniProt P62937 1-165)
[3] = biological target: cyclophilin domain of human Cyclophilin C (residues 25-212) (human, UniProt P45877 25-212)
Chain of cyclophilin domain of human Cyclophilin C (residues 25-212) (P45877 25-212): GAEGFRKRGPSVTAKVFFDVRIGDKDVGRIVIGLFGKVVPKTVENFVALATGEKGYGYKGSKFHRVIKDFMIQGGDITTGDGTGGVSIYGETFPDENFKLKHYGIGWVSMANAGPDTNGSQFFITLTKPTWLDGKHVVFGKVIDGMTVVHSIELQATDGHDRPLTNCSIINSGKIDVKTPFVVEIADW

Chain of human Cyclophilin A (P62937 whole entry, the tested form may be a part): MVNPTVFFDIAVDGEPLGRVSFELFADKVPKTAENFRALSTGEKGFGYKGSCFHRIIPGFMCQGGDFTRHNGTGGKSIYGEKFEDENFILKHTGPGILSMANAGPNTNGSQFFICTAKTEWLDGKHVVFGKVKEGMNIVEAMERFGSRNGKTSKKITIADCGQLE
Chain of cyclophilin domain of human Cyclophilin B (residues 39-216) (P23284 39-216): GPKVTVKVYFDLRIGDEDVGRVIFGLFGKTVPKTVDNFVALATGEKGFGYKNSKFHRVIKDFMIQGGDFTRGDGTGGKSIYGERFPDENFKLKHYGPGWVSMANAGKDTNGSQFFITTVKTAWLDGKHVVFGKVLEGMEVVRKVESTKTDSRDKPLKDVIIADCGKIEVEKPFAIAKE

For GSFGPDLRAGD [peptide substrate GSFGPDLRAGD], the “koff of the cis isomer (kCD)” value [1] was 200 s⁻¹, the “koff of the trans isomer (kBA)” value [1] was 960 s⁻¹ and the “kon of the cis isomer (kDC)” value [1] was 4.9e+06 M⁻¹ s⁻¹. The “kon of the trans isomer (kAB)” value [1] was 2.1e+06 M⁻¹ s⁻¹, the “koff of the cis isomer (kCD)” value [2] was 170 s⁻¹ and the “koff of the trans isomer (kBA)” value [2] was 550 s⁻¹. The “kon of the cis isomer (kDC)” value [2] was 1e+07 M⁻¹ s⁻¹, the “kon of the trans isomer (kAB)” value [2] was 3.2e+06 M⁻¹ s⁻¹ and the “koff of the cis isomer (kCD)” value [3] was 260 s⁻¹. For the same binder, the “koff of the trans isomer (kBA)” value [3] was 1620 s⁻¹, the “kon of the cis isomer (kDC)” value [3] was 7.9e+06 M⁻¹ s⁻¹ and the “kon of the trans isomer (kAB)” value [3] was 4.2e+06 M⁻¹ s⁻¹.

— publication PMC4801485 (Biochemistry, 2015)
